As usually defined, the Kd is the constant that tells how readily two partners part at equilibrium.

B1: mouse Rspo2 Fu1–Fu2 (mRspo2Fu1–Fu2, N37 or I39-G144), His10 [mouse] / mouse ZNRF3 ectodomain (K53-L205), biotinylated, immobilised for SPR [modified: biotin at the C-terminal BirA recognition sequence; biotin at the C-terminal BirA … (parent complex)
chain 1: ICKGCLSCSKDNGCSRCQQKLFFFLRREGMRQYGECLHSCPSGYYGHRAPDMNRCARCRIENCDSCFSKDFCTKCKVGFYLHRGRCFDECPDGFAPLDETMECVEG
chain 2: KETAFVEVVLFESSPSGDYTTHTTGLTGRFSRAGAMLSAEGEIVQMHPLGLCNNNDEEDLYEYGWVGVVKLEQPELDPKPCLTVLGKAKRAVQRGATAVIFDVSENPEAIDQLNQGSEDPLKRPVVYVKGADAIKLMNIVNKQKVARARIQHL

Variants of B1 are the subject of the first assay. The assay is described as follows: SPR. In general terms: SPR reads the build-up and loss of mass on a sensor chip optically.
Consider chain 2 M46T, for which the Kd is 1.5 µM.

chain 2 Q45E: the equilibrium dissociation constant (Kd) came to 5.6 µM.

The variants in the next assay derive from B1. The assay is described as follows: SPR. This is another data set of the same source.
Regarding chain 2 E57K, the dissociation constant (Kd) came out at 0.68 µM.

Source of the values: paper PMC3905715 (Nature Communications, 2013).
